The values below come from US20250027068A1 (published 2025).

In this experiment the target is pooled human IgG (human). Nature of the experiment: cell-based or functional assay.
Note: test concentration or dose not given here.

B1: PRT-196 (enzyme)
chain: MEVVEVWPYGQNPNGKTEILSQTEDSESLQRLRDIEDFQAEKKMQNVVYTKWLDGVDVKDHDFRKIVDGNIAYYATPLLNGRGFYDINKDFNRDSDKCAAAVAANMFHYWLDINRDNVDRFLRQNPEKHGIIELPDGQLKLSDFLNTYESDHGYRDKSKLFDFISNNFNGPVWTDKLLDNYINGYAYNYKYGRTIEDPTKNTSKINFFKEVFNEKILTNNHSIRNQNEFSVLLSEALYTGKAIGLSYGPAGLRHSLGHIISVWGADLDADGNVVAIYVTDSDDKKLTIGDERVGLKRYKISTDDENRLRLTAYEETHNTGGQIRGLWTLDTGKYAWADYFDKTEQTGTDQAEQLEHHHHHH
Take B1: the “Enzyme Activity Endpoint Assay (purified): Fab′2” value stood at 152 ng/µL, the “Enzyme Activity Endpoint Assay (purified): Fc” value worked out at 498 ng/µL, the “Enzyme Activity Endpoint Assay (purified): IgG” value came out at 707 ng/µL and the “Enzyme Activity Endpoint Assay (purified): scIgG” value was found to be 504 ng/µL.

B2: PRT-204 (enzyme)
chain: MEVVEVWPYGQNPNGKTEILSQTEDSESLQRLRDIEDFQAEKKMQNVVYTKWLDGVTVKDHDFRKIVDGNIAYYATPLLNGRGFYDINKDFNRDSDKCAAAVAANMFHYWLDRNRDNVDRFLSQNPEKHGIIELPDGQLKLSDFLNTYESDNGYRDKSKLFDFISNNFNGPVWTDKLLDNYINGYAYNYKYGRTIEDPTKNTSKINFFKEVFNEKILTNIHSIRNQNEFSDLLSEALYTGKAIGLSYGPAGLRHSLGHIISVWGADLDADGNVVAIYVTDSDDKKLTIGDERVGLKRYKISTDDEGRARLTAYEETDNTGGQIRGLETLDTGKYAWADYFDKTEQTGTDQAEQLEHHHHHH
In the case of B2, the “Enzyme Activity Endpoint Assay (purified): Fab′2” value came to 0 ng/µL, the “Enzyme Activity Endpoint Assay (purified): Fc” value was found to be 0 ng/µL, the “Enzyme Activity Endpoint Assay (purified): IgG” value was determined as 2260 ng/µL and the “Enzyme Activity Endpoint Assay (purified): scIgG” value was 0 ng/µL.

B3: PRT-199 (enzyme)
chain: MEVVEVWPYGQNPNGKTEILSQTEDSESLQRLRDIEDFQAEKKKQNVVYTKWLDGVDVKDHDFRKIVDGNIAYYATPLLNGRGFYDINKDFNRDSDKCAAAVAANMFHYWLDRNRDNVDRFLRQNPEKHGIIELPDGQLKLSDFLNTYESDDGYRDKSKLFDFISNNFNGPVWTDKLLDNYINGYAYNYKYGRTIEDPTKNTSKINFFKEVFNEKILTNNHSIRNQNEFSVLLSEALYTGKAIGLSYGPAGLRHSLGHIISVWGADLDADGNVVAIYVTDSDDKKLTIGDERVGLKRYKISTDDEGRLRLTAYEETHNTGGQIRGLWTLDTGKQAWADYFDKTEQTGTDQAEQLEHHHHHH
Regarding B3, the “Enzyme Activity Endpoint Assay (purified): Fab′2” value was determined as 95 ng/µL, the “Enzyme Activity Endpoint Assay (purified): Fc” value was 473 ng/µL, the “Enzyme Activity Endpoint Assay (purified): IgG” value is 797 ng/µL and the “Enzyme Activity Endpoint Assay (purified): scIgG” value came out at 544 ng/µL.

B4: PRT-197 (enzyme)
chain: MEVVEVWPYGQNPNGKTEILSQTEDSESLQRLRDIEDFQAEKKMQNVVYTKWLDGVDVKDHDFRKIVDGNIAYYATPLLNGRGFYDINKDFNRDSDKCAAAVAANMFHYWLDINRDNVDRFLRQNPEKHGIIELPDGQLKLSDFLNTYESDHGYRDKSKLFDFISNNFNGPVWTDKLLDNYINGYAYNYKYGRTIEDPTKNTSKINFFKEVFNEKILTNNHSIRNQNEFSDLLSEALYTGKAIGLSYGPAGLRHSLGHIISVWGADLDADGNVVAIYVTDSDDKKLTIGDERVGLKRYKISTDDENRARLTAYEETDNTGGQIRGLYTLDTGKQAWADYFDKTEQTGTDQAEQLEHHHHHH
Regarding B4, the “Enzyme Activity Endpoint Assay (purified): Fab′2” value is 0 ng/µL, the “Enzyme Activity Endpoint Assay (purified): Fc” value came to 179 ng/µL, the “Enzyme Activity Endpoint Assay (purified): IgG” value was found to be 1800 ng/µL and the “Enzyme Activity Endpoint Assay (purified): scIgG” value was 121 ng/µL.

B5: PRT-201 (enzyme)
chain: MEVVEVWPYGQNPNGKTEILSQTEDSESLQRLRDIEDFQAEKKKQNVVYTKWLDGVDVKDHDFRKIKDGNIEYYATPLLNGRGFYDINKDFNRDSDKCAAAVAANMFHYWLDRNRDNVDRFLRQNPEKHGIIELPDGQLKLSDFLNTYESDDGYRDKSKLFDFISNNFNGPVWTDKLLDNYINGYAYNYKYGRTIEDPTKNTSKINFFKEVFNEKILTNNHSIRNQNEFSVLLSEALYTGKAIGLSYGPAGLRHSLGHIISVWGADLDADGNVVAIYVTDSDDKKLTIGDERVGLKRYKISTDDEGRARLTAYEETHNTGGQIRGLYTLDTGKQAWADYFDKTEQTGTDQAEQLEHHHHHH
For the molecule B5, the “Enzyme Activity Endpoint Assay (purified): Fab′2” value is 0 ng/µL, the “Enzyme Activity Endpoint Assay (purified): Fc” value was 0 ng/µL, the “Enzyme Activity Endpoint Assay (purified): IgG” value was 2720 ng/µL and the “Enzyme Activity Endpoint Assay (purified): scIgG” value was found to be 0 ng/µL.

B6: PRT-202 (enzyme)
chain: MEVVEVWPYGQNPNGKTEILSQTEDSESLQRLRDIEDFQAEKKKQNVVYTKWLDGVDVKDHDFRKIVDGNIAYYATPLLNGRGFYDINKDFNRDSDKCAAAVAANMFHYWLDINRDNVDRFLRQNPEKHGIIELPDGQLKLSDFLNTYESDYGYRDKSKLFDFISNNFNGPVWTDKLLDNYINGYAYNYKYGRTIEDPTKNTSKINFFKKVFNEKILTNIHSIRNQNEFSDLLSEALYTGKAIGLSYGPAGLRHSLGHIISVWGADLDADGNVVAIYVTDSDDKKLTIGDERVGLKRYKISTDDEGRLRLTAYEETDNTGGEIRGLYTLDTGKQAWADYFDKTEQTGTDQAEQLEHHHHHH
For B6, the “Enzyme Activity Endpoint Assay (purified): Fab′2” value came to 25 ng/µL, the “Enzyme Activity Endpoint Assay (purified): Fc” value amounted to 402 ng/µL, the “Enzyme Activity Endpoint Assay (purified): IgG” value was 1130 ng/µL and the “Enzyme Activity Endpoint Assay (purified): scIgG” value amounted to 553 ng/µL.

B7: PRT-198 (enzyme)
chain: MEVVEVWPYGQNPNGKTEILSQTEDSESLQRLRDIEDFQAEKKKQGVVYTKWLDGVDVKDHDFRKIVDGNIAYYATPLLNGRGFYDINKDFNRDSDKCAAAVAANMFHYWLDINRDNVDRFLRQNPEKHGIIELPDGQLKLSDFLNTYESDHGYRDKSKLFDFISNNFNGPVWTDKLLDNYINGYAYNYKYGRTIEDPTKNTSKINFFKEVFNEKILTNNHSIRNQNEFSDLLSEALYTGKAIGLSYGPAGLRHSLGHIISVWGADLDADGNVVAIYVTDSDDKKLTIGDERVGLKRYKISTDDENRLRLTAYEETHNTGGQIRGLYTLDTGKQAWADYFDKTEQTGTDQAEQLEHHHHHH
B7: the “Enzyme Activity Endpoint Assay (purified): Fab′2” value was determined as 621 ng/µL, the “Enzyme Activity Endpoint Assay (purified): Fc” value worked out at 0 ng/µL, the “Enzyme Activity Endpoint Assay (purified): IgG” value worked out at 2320 ng/µL and the “Enzyme Activity Endpoint Assay (purified): scIgG” value was 0 ng/µL.

B8: PRT-203 (enzyme)
chain: MEVVEVWPYGQNPNGKTEILSQTEDSESLQRLRDIEDFQAEKKKQNVVYTKWLDGVDVKDHDFRKIKDGNIEYYATPLLNGRGFYDINKDFNRDSDKCAAAVAANMFHYWLDRNRDNVDRFLRQNPEKHGIIELPDGQLKLSDFLNTYESDDGYRDKSKLFDFISNNFNGPVWTDKLLDNYINGYAYNYKYGRTIEDPTKNTSKINFFKEVFNEKILTNNHSIRNQNEFSVLLSEALYTGKAIGLSYGPAGLRHSLGHIISVWGADLDADGNVVAIYVTDSDDKKLTIGDERVGLKRYKISTDDEGRARLTAYEETHNTGGQIRGLWTLDTGKQAWADYFDKTEQTGTDQAEQLEHHHHHH
Take B8: the “Enzyme Activity Endpoint Assay (purified): Fab′2” value turned out to be 0 ng/µL, the “Enzyme Activity Endpoint Assay (purified): Fc” value is 0 ng/µL, the “Enzyme Activity Endpoint Assay (purified): IgG” value was found to be 2130 ng/µL and the “Enzyme Activity Endpoint Assay (purified): scIgG” value amounted to 0 ng/µL.

B9: PRT-200 (enzyme)
chain: MEVVEVWPYGQNPNGKTEILSQTEDSESLQRLRDIEDFQAEKKMQNVVYTKWLDGVDVKDHDFRKIVDGNIAYYATPLLNGRGFYDINKDFNRDSDKCAAAVAANMFHYWLDINRDNVDRFLRQNPEKHGIIELPDGQLKLSDFLNTYESDHGYRDKSKLFDFISNNFNGPVWTDKLLDNYINGYAYNYKYGRTIEDPTKNTSKINFFKEVFNEKILTNNHSIRNQNEFSDLLSEALYTGKAIGLSYGPAGLRHSLGHIISVWGADLDADGNVVAIYVTDSDDKKLTIGDERVGLKRYKISTDDENRARLTAYEETDNTGGQIRGLWTLDTGKQAWADYFDKTEQTGTDQAEQLEHHHHHH
B9: the “Enzyme Activity Endpoint Assay (purified): Fab′2” value was found to be 0 ng/µL, the “Enzyme Activity Endpoint Assay (purified): Fc” value came out at 0 ng/µL, the “Enzyme Activity Endpoint Assay (purified): IgG” value is 2510 ng/µL and the “Enzyme Activity Endpoint Assay (purified): scIgG” value amounted to 0 ng/µL.

B10: PRT-205 (enzyme)
chain: MEVVEVWPYGQNPNGKTEILSQTEDSESLQRLRDIEDFQAEKKKEGVVYTKWLDGVDVDDHDFRKIVDGNIAYYATPLLNGRGFYDINKDFNRDSDKCAAAVAANMFHYWLDRNRDNVDRFLKQNPEKHGIIELPDGQLKLSDFLNTYESDNGYRDKSKLFDFISNNFNGPVWTDKLLDNYINGYAYNYKYGRTIEDPTKNTSKINFFKEVFNEKILTNNHSIRNYNTFSDLLSEALYTGKAIGLSYGPAGLRHSLGHIISVWGADLDADGNVVAIYVTDSDDKKLTIGDERVGLKRYKVSSDDENRLRLTAYEETHNTGGQIRGIYTLDTGKQAWADYFDKTEQTGTDQAEQLEHHHHHH
Turning to B10, the “Enzyme Activity Endpoint Assay (purified): Fab′2” value is 127 ng/µL, the “Enzyme Activity Endpoint Assay (purified): Fc” value turned out to be 216 ng/µL, the “Enzyme Activity Endpoint Assay (purified): IgG” value stood at 1090 ng/µL and the “Enzyme Activity Endpoint Assay (purified): scIgG” value turned out to be 278 ng/µL.

B11: PRT-194 (enzyme)
chain: MANQEIRYSEVTPYHVTSVWTKGVTPPDHDFANFTQGEDVFHAPYVANQGWYDITKTFNGKDDLLCGAATAGNMLHWWFDQNKDQIKRYLEEHPEKQKINFNGEQMFDVKEAIDTKNHQLDSKLFEYFKEKAFPYLSTKHLGVFPDHVIDMFINGYRLSLTNHGPTPVKEGSKDPRGGIFDAVFTRGDQSKLLTSRHDFKEKNLKEISDLIKKELTEGKALGLSHTYANVRHSINHVINLWGADFDSNGNLKAIYVTDSDDKKLTISNASIGMKKYFVGVNSAGKVAISAKEIKEDNIGAQVLGLFTLSTGQDSWNQTN
B11: the “Enzyme Activity Endpoint Assay (purified): Fab′2” value was 0 ng/µL, the “Enzyme Activity Endpoint Assay (purified): Fc” value is 12 ng/µL, the “Enzyme Activity Endpoint Assay (purified): IgG” value was 301 ng/µL and the “Enzyme Activity Endpoint Assay (purified): scIgG” value amounted to 0 ng/µL.

B12: PRT-195 (enzyme)
chain: MANQEIRYSEVTPYHVTSVWTKGVTPPDHDFRKIVDGEDVFHAPYVANQGWYDITKTFNGKDDLLCGAATAGNMLHWWFDQNKDQIKRYLEEHPEKQKINFNGEQMFDVKEAIDTKNHQLDSKLFEYFKEKAFPYLSTKHLGVFPDHVIDMFINGYRLSLTNHGPTPVKEGSKDPRGGIFDAVFTRGDQSKLLTSRHDFKEKNLKEISDLIKKELTEGKALGLSHTYANVRHSINHVINLWGADFDSNGNLKAIYVTDSDDKKLTIGDERIGMKKYFVGVNSAGKVAISAKEIKEDNIGAQVLGLFTLSTGQDSWNQTN
As to B12, the “Enzyme Activity Endpoint Assay (purified): Fab′2” value was determined as 0 ng/µL, the “Enzyme Activity Endpoint Assay (purified): Fc” value turned out to be 30 ng/µL, the “Enzyme Activity Endpoint Assay (purified): IgG” value amounted to 829 ng/µL and the “Enzyme Activity Endpoint Assay (purified): scIgG” value worked out at 15 ng/µL.
